Experimental data taken from US20140113348A1.

Molecular target: meditope-enabled trastuzumab Fab fragment
Assay: SPR; meditope alone on the Fab fragment, not IgG

Chain of meditope-enabled trastuzumab Fab fragment (chain, as listed by the source limits assumed, chain 1 of 2): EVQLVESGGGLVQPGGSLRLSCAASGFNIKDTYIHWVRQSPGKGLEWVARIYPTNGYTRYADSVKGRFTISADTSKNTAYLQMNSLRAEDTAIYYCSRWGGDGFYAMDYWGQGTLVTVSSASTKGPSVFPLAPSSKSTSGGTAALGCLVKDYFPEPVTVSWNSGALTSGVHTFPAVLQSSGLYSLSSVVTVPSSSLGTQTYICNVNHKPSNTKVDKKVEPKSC
Chain of meditope-enabled trastuzumab Fab fragment (chain, as listed by the source limits assumed, chain 2 of 2): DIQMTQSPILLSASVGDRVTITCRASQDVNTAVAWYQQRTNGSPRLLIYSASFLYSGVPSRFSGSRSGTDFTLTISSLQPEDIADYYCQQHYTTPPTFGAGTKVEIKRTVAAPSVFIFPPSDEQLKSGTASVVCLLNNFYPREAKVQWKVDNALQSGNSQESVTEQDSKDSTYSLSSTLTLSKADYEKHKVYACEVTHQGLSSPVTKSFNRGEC

Kd: 1000 nM
Binder: CQFDLSTRRLKC (modifications not checked) [cQFD meditope (cyclic …)]
